Among the data in patent US20180142038A1 are Glycovariant signal in Load (POC), Glycovariant signal in Flow-Through (POC) and percentage of control (POC), against Ab-A lot 2 (% of control (POC)) values, retold here.

In assay [1] the target is Ab-A lot 9 (load; eluate from a ceramic hydroxyapatite column). As to the kind of experiment: AGV HTRF assay as in Example 6, load of the Ab-1 NHS Sepharose column.
Assay [2] has the same target. In words: AGV HTRF assay as in Example 6, load of the Ab-1 Streptavidin Plus Ultralink column.
The target of assay [3] is Ab-A lot 9, pooled flow-through of the Ab-1 functionalized GE NHS-activated Sepharose 4 Fast Flow resin. In words: AGV HTRF assay as in Example 6, pooled flow-through of the Ab-1 NHS Sepharose column.
The target in assay [4] is Ab-A lot 9, pooled flow-through of the Ab-1 functionalized Pierce Streptavidin Plus Ultralink resin. As to the kind of experiment: AGV HTRF assay as in Example 6, pooled flow-through of the Ab-1 Streptavidin Plus Ultralink column.
A further assay concerns the target Ab-A lot 1. As to the kind of experiment: AGV HTRF assay (antibody 3 nM, antigen 1 nM, Eu anti-rabbit Fc donor, anti-human XL665 acceptor), signal relative to Ab-A lot 2.

B1: Ab1 (antibody, V domains shown)
VH: QEQLVESGGGLVQPGASLTLTCTASGFSFSNTNYMCWVRQAPGRGLEWVGCMPVGFIASTFYATWAKGRSAISKSSSTAVTLQMTSLTVADTATYFCARESGSGWALNLWGQGTLVTVSS
VL: DPVLTQTPSPVSAAVGGTVTISCQASESVESGNWLAWYQQKPGQPPKLLIYYTSTLASGVPSRFKGSGSGAHFTLTISGVQCDDAATYYCQGAFYGVNTFGGGTEVVVKR
With B1, the Glycovariant signal in Load (POC) in assay [1] and in assay [2] was 9.3 POC each time. For the same molecule, the Glycovariant signal in Flow-Through (POC) in assay [3] was determined as 6.3 POC; in assay [4], 1.2 POC. Besides, the percentage of control (POC), against Ab-A lot 2 (% of control (POC)) with Ab-A lot 1 was determined as 25.
